According to paper PMC8580058 (ACS catalysis, 2019):
Numbering of substitutions follows the chain as printed. Numbers in names are those of the source.

B1: 6-phosphogluconate dehydrogenase (6PGDH) (Thermotoga maritima MSB8; A11G/A447V/D294V/D82L/I120F/K27R/N387S/Q86L/R33I/T34I/T83L/Y383C) (protein)
chain: MKSHIGLIGLGVMGQNLALNIARKGYRVSVYNIIAQRTEEFVKNRVTNEEIEPHYDIESFVKSLERPRKIILMVKAGKPVDLLISLLLPHLEPGDLIIDGGNSHYMDTERRFKELSEKGFLFLGMGVSGGEYGALHGPSLMPGGSREAYNLVEEILLEIAAKTEDGPCCTYVGERSAGHFVKMVHNGIEYAIMQAIAEVYHIMRDVLSLSSEEMSSIFEEWNRGELSSFLVEITYKILRKKDEETGKPMVDVILDKAEQKGTGKWTSQAALDLGIPTPSINLAVVERVISHFKVIRTRLSKLYNKRRSATQGSEEFLRDLRNSLFFAMFMAFSQGMWLIAEASKEFGYGVSLSEVLRIWKGGCIIRAKLIDTLRRYISNENACLLESEEVMNLLKGKIDSLKNILKASIENEIPVPVLSSSYNYFMSLTEERLPANLIQAQRDFFGVHTFERVDREGVFHINWEEGEIG
B2: 6-phosphogluconate dehydrogenase (6PGDH) (Thermotoga maritima MSB8; A11G/A447V/D294V/D82L/F326S/F60Y/I120F/K118N/K27R/N387S/Q86L/R33I/T34I/T83L/Y383C) (protein)
chain: B1 chain with F60Y, K118N, F326S
B3: 6-phosphogluconate dehydrogenase (6PGDH) (Thermotoga maritima MSB8) (protein)
chain: MKSHIGLIGLAVMGQNLALNIARKGYKVSVYNRTAQRTEEFVKNRVTNEEIEPHYDIESFVKSLERPRKIILMVKAGKPVDDTISQLLPHLEPGDLIIDGGNSHYMDTERRFKELSEKGILFLGMGVSGGEYGALHGPSLMPGGSREAYNLVEEILLEIAAKTEDGPCCTYVGERSAGHFVKMVHNGIEYAIMQAIAEVYHIMRDVLSLSSEEMSSIFEEWNRGELSSFLVEITYKILRKKDEETGKPMVDVILDKAEQKGTGKWTSQAALDLGIPTPSINLAVVERVISHFKDIRTRLSKLYNKRRSATQGSEEFLRDLRNSLFFAMFMAFSQGMWLIAEASKEFGYGVSLSEVLRIWKGGCIIRAKLIDTLRRYISNENAYLLENEEVMNLLKGKIDSLKNILKASIENEIPVPVLSSSYNYFMSLTEERLPANLIQAQRDFFGAHTFERVDREGVFHINWEEGEIG
B4: 6-phosphogluconate dehydrogenase (6PGDH) (Thermotoga maritima MSB8; A11G/R33I/T34I) (protein)
chain: B3 chain with A11G, R33I, T34I
B5: 6-phosphogluconate dehydrogenase (6PGDH) (Thermotoga maritima MSB8; A11G/D82L/Q86L/R33I/T34I/T83L) (protein)
chain: B3 chain with A11G, R33I, T34I, D82L, T83L, Q86L
B6: 6-phosphogluconate dehydrogenase (6PGDH) (Thermotoga maritima MSB8; R33I/T34I) (protein)
chain: B3 chain with R33I, T34I

What follows are molecules tested on NC(=O)c1ccc[n+]([C@@H]2O[C@H](COP(=O)(O)OP(=O)(O)OC[C@H]3O[C@@H](n4cnc5c(N)ncnc54)[C@H](OP(=O)(O)O)[C@@H]3O)[C@@H](O)[C@H]2O)c1 (assay: steady-state kinetics of purified enzyme). Settings: apparent constants; co-substrate 6-phosphogluconate; assay details in supplement.
Format: biochemical, Thermotoga maritima

Molecule	Km [mM]	kcat [s⁻¹]	kcat/Km [M⁻¹ s⁻¹]
B1	0.22 ± 0.01	21.9 ± 0.2	101000
B2	0.21 ± 0.01	23.6 ± 0.3	113000
B3	0.0012 ± 0.0001	15.9 ± 0.2	1.34e+07
B4	2.1 ± 0.1	28.3 ± 0.6	13200
B5	0.39 ± 0.02	21.1 ± 0.3	53700
B6	11.5 ± 1.1	14.8 ± 0.7	1300

What follows are molecules tested on NC(=O)c1ccc[n+]([C@@H]2O[C@H](COP(=O)([O-])O)[C@@H](O)[C@H]2O)c1 (assay: steady-state kinetics of purified enzyme). Settings: apparent constants; co-substrate 6-phosphogluconate; assay details in supplement.
Format: biochemical, Thermotoga maritima

Molecule	Km [mM]	kcat [s⁻¹]	kcat/Km [M⁻¹ s⁻¹]
B1	15.1 ± 0.6	18.9 ± 0.4	1250
B2	16.0 ± 1.1	25.8 ± 0.8	1620
B3	30.6 ± 1.7	1.3 ± 0.1	42
B4	20.7 ± 0.7	10.2 ± 0.2	490
B5	27.5 ± 1.2	19.3 ± 0.4	700
B6	37.9 ± 3.6	1.7 ± 0.1	46

What follows are molecules tested against glucose-6-phosphate dehydrogenase (G6PDH) (Thermotoga maritima, UniProt Q9X0N9) (assay: specific activity of purified enzyme). Settings: co-substrate glucose 6-phosphate.
Format: biochemical

Chain of glucose-6-phosphate dehydrogenase (G6PDH) (Q9X0N9 whole entry): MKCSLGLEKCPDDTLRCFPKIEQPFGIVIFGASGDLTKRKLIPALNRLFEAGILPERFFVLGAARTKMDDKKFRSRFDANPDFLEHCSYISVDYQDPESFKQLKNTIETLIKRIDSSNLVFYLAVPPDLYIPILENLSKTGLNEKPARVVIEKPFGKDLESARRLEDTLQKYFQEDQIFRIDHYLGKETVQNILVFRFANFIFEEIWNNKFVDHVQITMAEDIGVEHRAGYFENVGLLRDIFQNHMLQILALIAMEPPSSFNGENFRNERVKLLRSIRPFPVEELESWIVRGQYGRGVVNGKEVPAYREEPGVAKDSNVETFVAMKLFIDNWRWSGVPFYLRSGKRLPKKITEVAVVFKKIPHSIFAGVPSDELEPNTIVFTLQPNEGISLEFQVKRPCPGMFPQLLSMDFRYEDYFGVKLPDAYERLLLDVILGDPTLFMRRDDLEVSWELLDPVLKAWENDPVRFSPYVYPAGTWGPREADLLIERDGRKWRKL

Molecule	specific activity of purified enzyme
NC(=O)c1ccc[n+]([C@@H]2O[C@H](COP(=O)([O-])O)[C@@H](O)[C@H]2O)c1 [NMN^+]	color intensities of colonies positively correlated with the specific activities of the purified dehydrogenases on NMN^+
